In article doi:10.1101/2021.02.02.429361 (bioRxiv, 2021):

B1: GST-AtMPK3 (enzyme, Arabidopsis thaliana, UniProt Q39023 1-370, looked up)
chain: MNTGGGQYTDFPAVETHGGQFISYDIFGSLFEITSKYRPPIIPIGRGAYGIVCSVLDTETNELVAMKKIANAFDNHMDAKRTLREIKLLRHLDHENIIAIRDVVPPPLRRQFSDVYISTELMDTDLHQIIRSNQSLSEEHCQYFLYQLLRGLKYIHSANIIHRDLKPSNLLLNANCDLKICDFGLARPTSENDFMTEYVVTRWYRAPELLLNSSDYTAAIDVWSVGCIFMELMNRKPLFPGKDHVHQMRLLTELLGTPTESDLGFTHNEDAKRYIRQLPNFPRQPLAKLFSHVNPMAIDLVDRMLTFDPNRRITVEQALNHQYLAKLHDPNDEPICQKPFSFEFEQQPLDEEQIKEMIYQEAIALNPTYG

How the values were obtained:
[1] = biological target: T1, ABI5 (His-ABI5) (Arabidopsis thaliana) (UniProt Q9SJN0); experiment: EMSA
T1 sequence: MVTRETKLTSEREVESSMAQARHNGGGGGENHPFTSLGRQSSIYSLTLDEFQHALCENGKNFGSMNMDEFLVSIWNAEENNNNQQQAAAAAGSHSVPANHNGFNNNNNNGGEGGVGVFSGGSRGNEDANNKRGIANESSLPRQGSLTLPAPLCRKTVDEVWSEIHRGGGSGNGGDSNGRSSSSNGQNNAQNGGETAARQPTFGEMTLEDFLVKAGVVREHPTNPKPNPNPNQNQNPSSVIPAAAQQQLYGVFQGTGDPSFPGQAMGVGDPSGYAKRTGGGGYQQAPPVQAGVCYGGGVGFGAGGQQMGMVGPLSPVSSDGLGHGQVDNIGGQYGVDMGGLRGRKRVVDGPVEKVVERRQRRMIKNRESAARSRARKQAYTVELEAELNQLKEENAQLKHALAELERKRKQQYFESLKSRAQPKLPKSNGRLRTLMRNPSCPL

His-AtABI5 = biological target: T2, His-AtABI5 (Arabidopsis thaliana, UniProt Q9SJN0 1-442); experiment: pull-down
T2 sequence (looked up): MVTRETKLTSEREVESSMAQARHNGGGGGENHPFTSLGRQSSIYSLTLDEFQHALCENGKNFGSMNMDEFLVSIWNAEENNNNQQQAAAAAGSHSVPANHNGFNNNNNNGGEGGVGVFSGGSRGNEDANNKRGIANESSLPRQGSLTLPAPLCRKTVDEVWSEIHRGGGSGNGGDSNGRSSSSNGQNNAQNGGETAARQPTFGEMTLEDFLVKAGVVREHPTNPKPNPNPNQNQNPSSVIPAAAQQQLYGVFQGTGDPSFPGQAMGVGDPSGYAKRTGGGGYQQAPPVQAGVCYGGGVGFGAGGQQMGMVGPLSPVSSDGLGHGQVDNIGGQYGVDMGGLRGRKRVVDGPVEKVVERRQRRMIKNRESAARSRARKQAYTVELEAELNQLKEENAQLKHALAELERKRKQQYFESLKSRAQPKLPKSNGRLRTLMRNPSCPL

Molecule | binding [1] | binding result (His-AtABI5)
AGTGTTATATAATTTTACGTAACGTAAAACAATACAAAATTTTAATTCCTGAACGAATAAAACGAGTATATTAATTAATTTATTGATCGTATTAAAACGAATATGATCCAATTAAGATTACAATTACTAAAATCCCCACACTATTATTGTCATTATTTAACTATGGCAGATAGATAGATACAGAACCGTAAAGGACGTTAGGAAGAGGAAGAACGTTGACGAAGTCAAC (double strand) [AtMPK3 promoter fragment (-402 to -256)] | binds | –
B1 | – | binds
